According to patent US20260115332A1, “Fibroblast Activation Protein Alpha-Cleavable Pro-Peptides and Methods of Use” (The Regents of the University of California, priority 2022, published 2026):
Where no end group is shown, it is not given here.

Target: T1, recombinant human FAPα (Homo sapiens, UniProt Q12884)
T1 sequence (Q12884 26-760 limits assumed): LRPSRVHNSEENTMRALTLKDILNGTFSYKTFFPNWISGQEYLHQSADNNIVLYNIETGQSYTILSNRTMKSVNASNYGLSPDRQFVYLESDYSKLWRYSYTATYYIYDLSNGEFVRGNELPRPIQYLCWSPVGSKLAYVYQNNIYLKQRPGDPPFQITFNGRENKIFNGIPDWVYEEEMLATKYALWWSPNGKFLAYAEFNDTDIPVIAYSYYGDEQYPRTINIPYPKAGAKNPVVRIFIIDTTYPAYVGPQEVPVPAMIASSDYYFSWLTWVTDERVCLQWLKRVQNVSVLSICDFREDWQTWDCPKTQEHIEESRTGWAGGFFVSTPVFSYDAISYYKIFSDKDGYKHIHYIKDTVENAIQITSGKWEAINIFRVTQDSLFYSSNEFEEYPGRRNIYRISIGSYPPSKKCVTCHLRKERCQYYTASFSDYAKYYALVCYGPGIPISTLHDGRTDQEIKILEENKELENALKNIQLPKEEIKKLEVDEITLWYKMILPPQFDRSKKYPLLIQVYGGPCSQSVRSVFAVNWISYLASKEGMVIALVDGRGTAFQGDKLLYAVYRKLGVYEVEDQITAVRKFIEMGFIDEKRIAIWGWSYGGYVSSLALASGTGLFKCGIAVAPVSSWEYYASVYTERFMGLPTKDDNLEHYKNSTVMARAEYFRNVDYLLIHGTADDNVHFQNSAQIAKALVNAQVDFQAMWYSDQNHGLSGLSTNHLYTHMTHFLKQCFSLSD
Assay: Multiplex substrate profiling by mass spectrometry (MSP-MS)
Format: biochemical
Settings: human FAP alpha
Description: Although much is known about the substrate preferences for FAPα from P4-P1, an optimal P4-P4′ substrate sequence for FAPα has never been defined. In this example, multiplex substrate profiling by mass spectrometry (MSP-MS) was performed to identify candidate FAPα P4-P4′ substrate sequences for potential inclusion in a FAPα targeted restricted interaction peptide (or “FRIP”).
Shown on the top of FIG. 3 is an Icelogo representing the cumulative amino acid preferences for recombinant human FAPα. Shown on the bottom of FIG. 3 is a heat map summarizing the amino acids that were most frequently incorporated at each site in the cleavage products. Lighter indicates an enriched amino acid. X=no preferred amino acid.
A list of the top P4-P4′ peptides cleaved by human FAP alpha as determined using the MSP-MS substrate profiling technology are shown in the following table, where X indicates an undefined amino acid site.

Molecule	# of cleavages on MSP-MS
HIGPTAAY (also: FRET fluorophore/quencher labels) [tested as 8 mer FRET peptide]	43
HQGPFWML (also: FRET labels) [tested as 8 mer FRET peptide]	30
HYGPTVNK (also: FRET labels) [tested as 8 mer FRET peptide]	28

Same assay, conditions: top P4-P4′ peptides cleaved by human FAP alpha

Molecule	# of cleavages on MS
GMGPFHIV	12
HIGPTAAY (also: FRET fluorophore/quencher labels) [tested as 8 mer FRET peptide]	43
HQGPFWML (also: FRET labels) [tested as 8 mer FRET peptide]	30
HYGPTVNK (also: FRET labels) [tested as 8 mer FRET peptide]	28
XSGPDYQK	14
XXFPNMWS	23
XXGPKLTY	28
XXGSQVFS	21
XXHPTKSF	16
XXIARQPW	14
XXIPTNIR	41
XXMPEEVA	17
XXWPMGMY	26
YHGPLAHX	98

Tested on: not listed separately
Assay: Tumor dose per isotope
Settings: Ac-225

Molecule	Tumor dose [Gy/mCi]
CN(CCCN1CCN(C(=O)CN2CCN(CC(=O)O)CCN(CC(=O)O)CCN(CC(=O)O)CC2)CC1)c1ccc2nccc(C(=O)NCC(=O)N3CC(F)(F)C[C@H]3C#N)c2c1 [FAPI 46]	720

Same assay, conditions: Cu-64

Molecule	Tumor dose [Gy/mCi]
CN(CCCN1CCN(C(=O)CN2CCN(CC(=O)O)CCN(CC(=O)O)CCN(CC(=O)O)CC2)CC1)c1ccc2nccc(C(=O)NCC(=O)N3CC(F)(F)C[C@H]3C#N)c2c1 [FAPI 46]	2

Same assay, conditions: Cu-67

Molecule	Tumor dose [Gy/mCi]
CN(CCCN1CCN(C(=O)CN2CCN(CC(=O)O)CCN(CC(=O)O)CCN(CC(=O)O)CC2)CC1)c1ccc2nccc(C(=O)NCC(=O)N3CC(F)(F)C[C@H]3C#N)c2c1 [FAPI 46]	11

Same assay, conditions: Lu-177

Molecule	Tumor dose [Gy/mCi]
CN(CCCN1CCN(C(=O)CN2CCN(CC(=O)O)CCN(CC(=O)O)CCN(CC(=O)O)CC2)CC1)c1ccc2nccc(C(=O)NCC(=O)N3CC(F)(F)C[C@H]3C#N)c2c1 [FAPI 46]	16

Same assay, conditions: Y-90

Molecule	Tumor dose [Gy/mCi]
CN(CCCN1CCN(C(=O)CN2CCN(CC(=O)O)CCN(CC(=O)O)CCN(CC(=O)O)CC2)CC1)c1ccc2nccc(C(=O)NCC(=O)N3CC(F)(F)C[C@H]3C#N)c2c1 [FAPI 46]	42

Target: T1, recombinant human FAPα
Assay: Kinetics of FRET donor/acceptor 8 mer substrates under Michaelis-Menten conditions
Format: biochemical
Settings: FRET donor/acceptor substrate adducts, human recombinant FAP alpha
Description: Three top hits, […] (SEQ ID NO:38), […] (SEQ ID NO:40), and […] (SEQ ID NO:42), were selected for further analysis. An 8 mer peptide bearing FRET donor-acceptor dyes on the N and C terminus was synthesized and evaluated as a substrate for recombinant human FAPα (RND Systems) under Michaelis-Menten conditions.
A table summarizing the kinetic properties of three of the top P4-P4′ 8 mer peptides emerging from the MSP-MS assay is provided below, where the kinetic properties were determined using FRET donor/acceptor substrate adducts and human recombinant FAP alpha.

Molecule	Km [µM]	kcat [s⁻¹]
HIGPTAAY (also: FRET fluorophore/quencher labels) [tested as 8 mer FRET peptide]	2.45	0.2986
HQGPFWML (also: FRET labels) [tested as 8 mer FRET peptide]	1.34	0.1041
HYGPTVNK (also: FRET labels) [tested as 8 mer FRET peptide]	2.7	0.04031
